Starred links: 1 amine or outer side, 2 acyl side, 3 side chain; linkers in the order of their positions; H or OH if unused. Positions of bridges follow the written chain, without caps; N, C: chain ends. Non-standard residues stand in square brackets, D forms with d. Primed or numbered codes have the meaning given here. PyrS2″ = (S)-3-amino-1-((pent-4-en-1-yloxy)carbonyl)pyrrolidine-3-carboxylic acid (stapling residue), C=CCCCOC(=O)N1CC[C@@](N[*:1])(C(=O)[*:2])C1; B5(18) = 2,2-bis(4-pentenyl)glycine (2-amino-2-(pent-4-en-1-yl)hept-6-enoic acid), stitching residue, C=CCCCC(CCCC=C)(N[*:1])C(=O)[*:2]; B5(4) = 2,2-bis(4-pentenyl)glycine = 2-amino-2-(pent-4-en-1-yl)hept-6-enoic acid (stitching residue), C=CCCCC(CCCC=C)(N[*:1])C(=O)[*:2]; B5(5) = 2,2-bis(4-pentenyl)glycine, 2-amino-2-(pent-4-en-1-yl)hept-6-enoic acid (stitching residue), C=CCCCC(CCCC=C)(N[*:1])C(=O)[*:2]; TfeGA = (S)-2-amino-3-((carboxymethyl)(2,2,2-trifluoroethyl)amino)propanoic acid, O=C([C@H](CN(CC(=O)[*:3])CC(F)(F)F)N[*:1])[*:2]; B5(3) = 2,2-bis(4-pentenyl)glycine (stitching residue), C=CCCCC(CCCC=C)(N[*:1])C(=O)[*:2]; B5 = 2-amino-2-(pent-4-en-1-yl)hept-6-enoic acid, C=CCCCC(CCCC=C)(N[*:1])C(=O)[*:2]; Phe(3-COOH) = N[C@@H](Cc1cccc(C(=O)O)c1)C(=O)O; 2F3MeF = Cc1cccc(C[C@H](N[*:1])C(=O)[*:2])c1F; Phe(2-CF3) = N[C@@H](Cc1ccccc1C(F)(F)F)C(=O)O; Bip = N[C@@H](Cc1ccc(-c2ccccc2)cc1)C(=O)O; Dip = N[C@H](C(=O)O)C(c1ccccc1)c1ccccc1; Phe(2-Cl) = N[C@@H](Cc1ccccc1Cl)C(=O)O; Met(O2) = CS(=O)(=O)CC[C@H](N)C(=O)O; Bta = N[C@@H](Cc1csc2ccccc12)C(=O)O; Lys(iPr) = CC(C)NCCCC[C@H](N)C(=O)O; αAllylPro = C=CC[C@@]1(C(=O)O)CCCN1; tBuAla = CC(C)(C)C[C@H](N)C(=O)O; 3Thi = N[C@@H](Cc1ccsc1)C(=O)O; Cha = N[C@@H](CC1CCCCC1)C(=O)O; S8 = C=CCCCCCC[C@](C)(N)C(=O)O; Phg = N[C@H](C(=O)O)c1ccccc1; hSer = N[C@@H](CCO)C(=O)O
B1: I-2066 (peptide)
peptide: Ac-[αAllylPro]N[Cha][B5(5)]DQHAFN[PyrS2″]F[Bta][hSer]-NH2
modifications: staple 1-4, 4-11
B2: I-725 (peptide)
peptide: Ac-[αAllylPro]DI[B5]DEAA[Dip]Q[S8]F[Bta]Q-NH2
modifications: staple 1-4, 4-11
B3: I-2051 (peptide)
peptide: Ac-[αAllylPro]D[tBuAla][B5(3)]D[Phe(3-COOH)]TAFL[PyrS2″][3Thi][Bta]A-NH2
modifications: staple 1-4, 4-11
B4: I-2054 (peptide)
peptide: Ac-[αAllylPro]D[tBuAla][B5(4)]D[Phe(3-COOH)]QAFV[PyrS2″][3Thi][Bta]A-NH2
modifications: staple 1-4, 4-11
B5: I-2062 (peptide)
peptide: Ac-[αAllylPro]D[tBuAla][B5(4)]D[Phe(3-COOH)]AAFL[PyrS2″][Phe(2-Cl)][Bta][Met(O2)]-NH2
modifications: staple 1-4, 4-11
B6: I-2059 (peptide)
peptide: Ac-[αAllylPro]D[tBuAla][B5(4)]D[Phe(3-COOH)]SAFL[PyrS2″][Phe(2-CF3)][Bta]A-NH2
modifications: staple 1-4, 4-11
B7: I-2069 (peptide)
peptide: Ac-[αAllylPro]N[Cha][B5(4)]DQHAFN[PyrS2″]F[Bta]A-NH2
modifications: staple 1-4, 4-11
B8: I-1011 (peptide)
peptide: Ac-[αAllylPro]D[tBuAla][B5(18)]D[TfeGA]KAFN[PyrS2″][Phe(2-Cl)][Bta]Q-NH2
modifications: staple 1-4, 4-11
B9: I-1017 (peptide)
peptide: Ac-[αAllylPro]D[tBuAla][B5(18)]DDAAFS[PyrS2″][Phe(2-Cl)][Bta]Q-NH2
modifications: staple 1-4, 4-11
B10: I-722 (peptide)
peptide: Ac-[αAllylPro]DI[B5]DEAA[Cha]Q[S8]F[Bta]Q-NH2
modifications: staple 1-4, 4-11
B11: I-2336 (peptide)
peptide: Ac-[αAllylPro]D[tBuAla][B5(3)]N[Phe(3-COOH)]AAFT[PyrS2″][3Thi][Bta]Q-NH2
modifications: staple 1-4, 4-11
B12: I-723 (peptide)
peptide: Ac-[αAllylPro]DI[B5]DEAA[Bip]Q[S8]F[Bta]Q-NH2
modifications: staple 1-4, 4-11
B13: I-2065 (peptide)
peptide: Ac-[αAllylPro]N[Cha][B5(4)]DQ[Lys(iPr)]AFN[PyrS2″]F[Bta]A-NH2
modifications: staple 1-4, 4-11
B14: I-705 (peptide)
peptide: Ac-[αAllylPro]D[tBuAla][B5(3)]D[TfeGA]AAFN[S8][3Thi][Bta]H-NH2
modifications: staple 1-4, 4-11
B15: I-713 (peptide)
peptide: Ac-[αAllylPro]D[tBuAla][B5(3)]DEAAFN[S8]F[Bta]-NH2
modifications: staple 1-4, 4-11
B16: I-2070 (peptide)
peptide: Ac-[αAllylPro]N[Cha][B5(4)]DQQAFN[PyrS2″]F[Bta]A-NH2
modifications: staple 1-4, 4-11
B17: I-2058 (peptide)
peptide: Ac-[αAllylPro]D[tBuAla][B5(4)]D[Phe(3-COOH)]NAFL[PyrS2″][Phe(2-CF3)][Bta]A-NH2
modifications: staple 1-4, 4-11
B18: I-719 (peptide)
peptide: Ac-[αAllylPro]D[tBuAla][B5]DEAAFN[S8][3Thi][Bta]-NH2
modifications: staple 1-4, 4-11
B19: I-712 (peptide)
peptide: Ac-[αAllylPro]D[tBuAla][B5(3)]DEAAFN[S8]F[Bta]-NH2
modifications: staple 1-4, 4-11
B20: I-714 (peptide)
peptide: Ac-[αAllylPro]DI[B5(3)]DEAAFN[S8]F[Bta]-NH2
modifications: staple 1-4, 4-11
B21: I-721 (peptide)
peptide: Ac-[αAllylPro]DI[B5]DEAAFN[S8][3Thi][Bta]-NH2
modifications: staple 1-4, 4-11
B22: I-2063 (peptide)
peptide: Ac-[αAllylPro]D[tBuAla][B5(4)]D[Phe(3-COOH)]AAFL[PyrS2″][Phe(2-CF3)][Bta][Met(O2)]-NH2
modifications: staple 1-4, 4-11
B23: I-718 (peptide)
peptide: Ac-[αAllylPro]D[tBuAla][B5]DEAAFN[S8][3Thi][Bta]-NH2
modifications: staple 1-4, 4-11
B24: I-2057 (peptide)
peptide: Ac-[αAllylPro]D[tBuAla][B5(4)]D[Phe(3-COOH)]QAFL[PyrS2″][2F3MeF][Bta]A-NH2
modifications: staple 1-4, 4-11
B25: I-2067 (peptide)
peptide: Ac-[αAllylPro]N[Cha][B5(4)]DQQAFN[PyrS2″]F[Bta][hSer]-NH2
modifications: staple 1-4, 4-11
B26: I-720 (peptide)
peptide: Ac-[αAllylPro]DI[B5]DEAAFN[S8][3Thi][Bta]-NH2
modifications: staple 1-4, 4-11
B27: I-717 (peptide)
peptide: Ac-[αAllylPro]DL[B5]DEAAFN[S8][3Thi][Bta]-NH2
modifications: staple 1-4, 4-11
B28: I-726 (peptide)
peptide: Ac-[αAllylPro]DI[B5]DEAA[Phg]Q[S8]F[Bta]Q-NH2
modifications: staple 1-4, 4-11
B29: I-715 (peptide)
peptide: Ac-[αAllylPro]DI[B5(3)]DEAAFN[S8]F[Bta]-NH2
modifications: staple 1-4, 4-11
B30: I-1010 (peptide)
peptide: Ac-[αAllylPro]D[tBuAla][B5(5)]D[TfeGA]IAFN[PyrS2″][Phe(2-Cl)][Bta]Q-NH2
modifications: staple 1-4, 4-11
B31: I-2068 (peptide)
peptide: Ac-[αAllylPro]N[Cha][B5(4)]DQ[Lys(iPr)]AFN[PyrS2″]F[Bta]F-NH2
modifications: staple 1-4, 4-11
B32: I-2060 (peptide)
peptide: Ac-[αAllylPro]D[tBuAla][B5(4)]D[Phe(3-COOH)]TAFL[PyrS2″][Phe(2-CF3)][Bta]A-NH2
modifications: staple 1-4, 4-11
B33: I-1016 (peptide)
peptide: Ac-[αAllylPro]D[tBuAla][B5(18)]DNAAFT[PyrS2″][Phe(2-Cl)][Bta]S-NH2
modifications: staple 1-4, 4-11
B34: I-709 (peptide)
peptide: Ac-[αAllylPro]D[Cha][B5(3)]D[TfeGA]AAFN[S8][3Thi][Bta]H-NH2
modifications: staple 1-4, 4-11
B35: I-2056 (peptide)
peptide: Ac-[αAllylPro]D[tBuAla][B5(4)]D[Phe(3-COOH)]QAFL[PyrS2″][3Thi][Bta]L-NH2
modifications: staple 1-4, 4-11
B36: I-2052 (peptide)
peptide: Ac-[αAllylPro]D[tBuAla][B5(3)]D[Phe(3-COOH)]QAFF[PyrS2″][3Thi][Bta]A-NH2
modifications: staple 1-4, 4-11
B37: I-716 (peptide)
peptide: Ac-[αAllylPro]DL[B5]DEAAFN[S8][3Thi][Bta]-NH2
modifications: staple 1-4, 4-11

Legend:
[1] = molecular target: full-length beta-Catenin (Uniprot ID P35222) (Homo sapiens (Human)) (UniProt P35222); assay: fluorescence polarization competition; 10 nM full-length beta-catenin, 10 nM 5FAM-TCF4(10-53) as competitor probe
Target sequence in this assay (P35222 2-781 limits assumed): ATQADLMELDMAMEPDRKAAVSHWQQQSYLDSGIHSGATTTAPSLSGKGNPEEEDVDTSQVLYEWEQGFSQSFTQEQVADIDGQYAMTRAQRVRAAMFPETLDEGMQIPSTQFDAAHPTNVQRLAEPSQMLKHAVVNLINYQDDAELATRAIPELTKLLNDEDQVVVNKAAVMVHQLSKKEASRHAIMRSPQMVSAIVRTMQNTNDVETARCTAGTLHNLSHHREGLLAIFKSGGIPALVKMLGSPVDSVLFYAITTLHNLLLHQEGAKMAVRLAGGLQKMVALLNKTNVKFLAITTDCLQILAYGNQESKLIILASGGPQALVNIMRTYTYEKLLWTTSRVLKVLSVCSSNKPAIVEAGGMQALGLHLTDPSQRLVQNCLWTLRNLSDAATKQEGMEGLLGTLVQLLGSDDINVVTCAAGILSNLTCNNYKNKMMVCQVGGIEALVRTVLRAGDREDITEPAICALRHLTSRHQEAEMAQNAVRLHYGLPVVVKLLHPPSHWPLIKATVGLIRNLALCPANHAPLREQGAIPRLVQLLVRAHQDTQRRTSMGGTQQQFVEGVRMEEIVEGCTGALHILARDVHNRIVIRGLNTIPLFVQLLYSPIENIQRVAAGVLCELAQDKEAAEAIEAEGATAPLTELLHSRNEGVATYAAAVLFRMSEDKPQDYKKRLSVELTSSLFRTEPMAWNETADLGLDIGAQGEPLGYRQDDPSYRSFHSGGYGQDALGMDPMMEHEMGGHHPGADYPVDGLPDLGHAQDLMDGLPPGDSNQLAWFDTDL

[2] = molecular target: full-length beta-Catenin (Uniprot ID P35222) (Homo sapiens (Human)) (UniProt P35222); assay: fluorescence polarization competition; full-length beta-catenin with 5FAM-labeled TCF4 residues 10-53 probe as competitor
Target sequence in this assay (P35222 whole entry, the tested form may be a part): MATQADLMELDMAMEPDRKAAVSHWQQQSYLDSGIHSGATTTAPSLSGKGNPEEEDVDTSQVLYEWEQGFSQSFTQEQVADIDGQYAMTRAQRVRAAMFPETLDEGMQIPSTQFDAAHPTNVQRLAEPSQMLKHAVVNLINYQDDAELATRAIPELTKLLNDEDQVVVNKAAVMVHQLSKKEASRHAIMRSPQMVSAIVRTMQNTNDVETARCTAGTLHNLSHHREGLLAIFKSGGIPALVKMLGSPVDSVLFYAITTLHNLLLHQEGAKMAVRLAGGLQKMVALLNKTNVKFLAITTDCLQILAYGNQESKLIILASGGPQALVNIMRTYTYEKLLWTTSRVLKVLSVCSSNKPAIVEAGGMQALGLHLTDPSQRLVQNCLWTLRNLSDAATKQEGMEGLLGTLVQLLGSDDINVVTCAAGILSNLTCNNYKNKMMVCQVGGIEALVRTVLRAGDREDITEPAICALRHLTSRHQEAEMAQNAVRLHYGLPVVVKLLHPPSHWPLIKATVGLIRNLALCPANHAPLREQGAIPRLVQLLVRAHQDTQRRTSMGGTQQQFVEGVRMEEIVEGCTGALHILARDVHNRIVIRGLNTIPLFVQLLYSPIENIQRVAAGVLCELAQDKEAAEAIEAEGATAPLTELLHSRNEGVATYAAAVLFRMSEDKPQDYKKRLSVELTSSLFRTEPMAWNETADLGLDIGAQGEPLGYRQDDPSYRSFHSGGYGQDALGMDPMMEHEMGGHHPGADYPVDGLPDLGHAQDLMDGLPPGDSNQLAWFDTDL

[3] = molecular target: full-length beta-Catenin (Uniprot ID P35222) (Homo sapiens (Human)) (UniProt P35222); assay: fluorescence polarization competition; peptide titrated against full-length beta-catenin + 5FAM-TCF4(10-53)
Target sequence in this assay (P35222 whole entry, the tested form may be a part): as above

[4] = molecular target: full-length beta-Catenin (Uniprot ID P35222) (Homo sapiens (Human)) (UniProt P35222); assay: fluorescence polarization competition; displaces 5FAM-TCF4(10-53) from full-length beta-catenin
Target sequence in this assay (P35222 2-781 limits assumed): as the sequence (P35222 2-781 limits assumed) above

[5] = molecular target: full-length beta-Catenin (Uniprot ID P35222) (Homo sapiens (Human)) (UniProt P35222); assay: fluorescence polarization competition; 10 nM full-length beta-catenin + 10 nM 5FAM-TCF4(10-53) probe
Target sequence in this assay (P35222 whole entry, the tested form may be a part): as the sequence (P35222 whole entry, the tested form may be a part) above

[6] = molecular target: Bcat-Halo (UniProt P35222); assay: NanoBRET Abs IC50, Bcat-Halo/TCF4-Luc in HEK293 cells
Sequence of Bcat-Halo (P35222 whole entry): as the sequence (P35222 whole entry, the tested form may be a part) above

[7] = molecular target: full-length beta-Catenin (Uniprot ID P35222) (Homo sapiens (Human)) (UniProt P35222); assay: fluorescence polarization competition; 10 nM full-length beta-catenin + 10 nM 5FAM-TCF4(10-53) probe; peptide titrated 10 uM to 5 nM
Target sequence in this assay (P35222 2-781 limits assumed): as the sequence (P35222 2-781 limits assumed) above

[8] = molecular target: full-length beta-Catenin (Uniprot ID P35222) (Homo sapiens (Human)) (UniProt P35222); assay: fluorescence polarization competition; full-length beta-catenin + 5FAM-TCF4(10-53) probe; peptide titrated
Target sequence in this assay (P35222 2-781 limits assumed): as above

| Binder | IC50 [1] | EC50 [2] | IC50 [3] | other results |
| --- | --- | --- | --- | --- |
| B1 | 357 nM |  |  |  |
| B2 |  | 5000 nM | 5000 nM |  |
| B3 | 16 nM |  |  |  |
| B4 | 5 nM |  |  |  |
| B5 | 41 nM |  |  |  |
| B6 | 38 nM |  |  |  |
| B7 | 256 nM |  |  |  |
| B8 |  |  |  | EC50 [4]: 5 nM; IC50 [5]: 5 nM; IC50 [6]: 20800 nM |
| B9 |  |  |  | EC50 [4]: 5 nM; IC50 [5]: 5 nM; IC50 [6]: 8900 nM |
| B10 |  | 1130 nM | 1130 nM |  |
| B11 |  |  |  | IC50 [7]: 19 nM |
| B12 |  | 3830 nM | 3830 nM |  |
| B13 | 144 nM |  |  |  |
| B14 |  |  | 58 nM | EC50 [8]: 58 nM |
| B15 |  | 70 nM | 70 nM |  |
| B16 | 190 nM |  |  |  |
| B17 | 10 nM |  |  |  |
| B18 |  | 38 nM | 38 nM |  |
| B19 |  | 92 nM | 92 nM |  |

| Binder | IC50 [1] | EC50 [2] | IC50 [3] | other results |
| --- | --- | --- | --- | --- |
| B20 |  | 131 nM | 131 nM |  |
| B21 |  | 46 nM | 46 nM |  |
| B22 | 56 nM |  |  |  |
| B23 |  | 82 nM | 82 nM |  |
| B24 | 17 nM |  |  |  |
| B25 | 180 nM |  |  |  |
| B26 |  | 75 nM | 75 nM |  |
| B27 |  | 39 nM | 39 nM |  |
| B28 |  | 5000 nM | 5000 nM |  |
| B29 |  | 60.5 nM | 60.5 nM |  |
| B30 |  |  |  | EC50 [4]: 8 nM; IC50 [5]: 8 nM; IC50 [6]: 13300 nM |
| B31 | 338 nM |  |  |  |
| B32 | 56 nM |  |  |  |
| B33 |  |  |  | EC50 [4]: 8 nM; IC50 [5]: 8 nM; IC50 [6]: 21400 nM |
| B34 |  |  | 54 nM | EC50 [8]: 54 nM |
| B35 | 16 nM |  |  |  |
| B36 | 12 nM |  |  |  |
| B37 |  | 91 nM | 91 nM |  |
